Patent JP2018127443A

Target: T1, 変性rFXIII-A (human) (UniProt P00488)
T1 sequence: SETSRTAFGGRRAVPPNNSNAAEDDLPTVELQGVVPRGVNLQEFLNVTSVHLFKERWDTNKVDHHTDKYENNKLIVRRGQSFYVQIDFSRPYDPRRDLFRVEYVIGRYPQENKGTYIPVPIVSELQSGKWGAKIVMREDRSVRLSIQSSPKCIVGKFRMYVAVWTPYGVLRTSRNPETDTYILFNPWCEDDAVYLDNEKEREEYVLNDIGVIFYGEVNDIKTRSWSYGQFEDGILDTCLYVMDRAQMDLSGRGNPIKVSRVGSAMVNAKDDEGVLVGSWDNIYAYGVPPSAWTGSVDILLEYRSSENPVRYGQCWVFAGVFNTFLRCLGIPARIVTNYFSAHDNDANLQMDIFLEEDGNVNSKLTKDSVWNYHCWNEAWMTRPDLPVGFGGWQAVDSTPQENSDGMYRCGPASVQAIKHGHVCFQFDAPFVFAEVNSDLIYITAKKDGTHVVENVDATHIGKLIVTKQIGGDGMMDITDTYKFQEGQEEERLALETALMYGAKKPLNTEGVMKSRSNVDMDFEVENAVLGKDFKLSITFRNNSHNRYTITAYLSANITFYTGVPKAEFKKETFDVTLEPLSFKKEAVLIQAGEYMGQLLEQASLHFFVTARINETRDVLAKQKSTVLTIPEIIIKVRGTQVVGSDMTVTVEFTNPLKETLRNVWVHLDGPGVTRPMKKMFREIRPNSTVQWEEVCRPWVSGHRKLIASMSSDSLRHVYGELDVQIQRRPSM
Assay: solid-phase ELISA: denatured vs native rFXIII-A coated

fold change of binding, denatured against native rFXIII-A: 2 fold
B1: ヒト抗FXIII-Aモノクローナル抗体 A75K (antibody, V domains shown)
VH: QVQLVESGGGVVQPGRSLSLSCAASGFNFISYGMHWVRQSPGKGLEWVAVISYDGSKKYYADFVKGRFTISRDNSKNTLFLQMNSLRGDDTAVFYCAKDRGFYGSGSSDYYYVMDVWGQGTTVTVSS
VL: DIQMTQSPSSLSASVGDRVTITCRASQGITNYLAWFQHKPGKAPKSLIYAASTLHRGVSSKFSGSGSGTDFTLTISNLQPEDFATYYCQQYKTYPITFGQGTRLDIK
